Patent US20260209387A1, “SINGLE-DOMAIN ANTIBODY FOR INHIBITION OF NEUTROPHIL ELASTASE ACTIVITY” (UNIVERSITE DE LIEGE, priority 2023, published 2026)

Columns and labels:
hNE [1] = target: T1, hNE (Homo sapiens, UniProt P08246); assay: hNE inhibition, hydrolysis of chromogenic substrate N-Succinyl-Ala-Ala-Ala-paraNitroAnilide; format: biochemical; details: hNE vs mNE
T1 construct: purchased Elastin Products Company (EPC)
T1 sequence (P08246 30-247): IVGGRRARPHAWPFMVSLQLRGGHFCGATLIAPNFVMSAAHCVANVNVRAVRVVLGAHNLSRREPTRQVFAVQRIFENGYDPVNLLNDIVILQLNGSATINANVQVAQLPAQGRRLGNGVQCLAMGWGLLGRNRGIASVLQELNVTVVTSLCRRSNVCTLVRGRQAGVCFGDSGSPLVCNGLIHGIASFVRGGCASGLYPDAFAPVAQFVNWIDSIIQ
Method: Inhibition of the hydrolysis of a chromogenic substrate. […] Briefly, hNE (Elastin products company, EPC, United States) was resuspended at 1 mg·mL^−1 in 50 mM sodium acetate buffer pH 5 containing 100 mM NaCl and stored at 4° C. The substrate Succinyl-Ala-Ala-Ala-paraNitroAnilide was dissolved at 1 mM in 0.1 M Tris pH 7.5 with NaCl 0.5 M and NaN3 0.01% (% w/v) and stored at 4° C. 230 μl of substrate (1 mM) were mixed with 10 μl of Bovine Serum Albumin 9 μM (BSA, Sigma-Aldrich, Germany) and incubated 20 min at 25° C. in a clear flat bottom 96-well plate (Greiner Bio-One, Belgium). […] The absorbance at 410 nm was measured every min for 60 minutes in a SpectraMax M2e Microplates Reader (Molecular Devices, California, USA). The initial velocity determined in the presence of the ISVD at different Nb: hNE ratios was compared to that measured in the absence of the ISVD, to determine the residual activity. […]
The absorbance at 410 nm was measured every min for 60 minutes. The initial velocity determined in the presence of the inhibitor at different inhibitor: hNE ratios was compared to that measured in the absence of the inhibitor, to determine the residual activity. […] The hNE activity was monitored at 410 nm for 10 minutes using the spectrophotometer Specord 50 Plus (Analytik Jena) and data were collected with the WinAspectPlus software. […]

[2] = tested on: hNE-induced alveolar-capillary damage; assay: hNE-induced acute lung injury mouse model; format: in vivo, mice; details: nasal instillation 15 min prior to hNE 25 μg; molar ratio Nb/HNE 4/1
Method: The in vivo efficacy of NbE201 was determined using a mouse model of acute lung injury induced by nasal instillation of HNE (L agente et al., 2009, American Thoracic Society International Conference Abstracts. (American Thoracic Society), A5668. doi: 10.1164/ajrccm-conference.2009.179.1_MeetingAbstracts.A5668). […]
It was determined with the hemoglobin assay kit (Sigma) and performed according to the manufacturer's instructions. […] A measurement of the optical density at 400 nm allowed the quantification of this stable complex. […]
Histological sections of the lung were digitized using a panoramic scan 2 (3[…]). […] This semi-automated analysis made it possible to quantify the damaged alveolar surface. […] The percentage of injured surface was determined by the ratio: % injured area=(injured area/alveolar area)×100

[3] = target: T2, porcine pancreatic elastase (pPE) (Sus scrofa, UniProt P00772); assay: pPE inhibition, substrate Succinyl-Ala-Ala-Ala-paraNitroAnilide; format: biochemical; details: chromogenic substrate
T2 construct: purchased Sigma
From the text: To determine whether NbE201 was specific for hNE, we first investigated its ability to inhibit several serine proteases: pancreatic elastase from pork (pPE, 39.2% sequence identity, from Sigma), mice neutrophil elastase (mNE, 74.9% sequence identity, from EPC) and with two other human serine proteases present in the lung: proteinase 3 (hPR3 from EPC, 54.7% sequence identity) and cathepsin G (hCG from Calbiochem, 36.7% sequence identity). The substrate used were Succinyl-Ala-Ala-Ala-paraNitroAnilide (1 mM in 0.1 M Tris pH 7.5 with NaCl 0.5 M and NaN3 0.01%, % w/v from Sigma-Aldrich) for pPE, MeOSuc-Ala-Ala-Pro-Val-AMC (100 μM in Tris 50 mM, NaCl 1 M, 0.05% (% w/v) Brij-35, pH 7.5) for mNE, N-Succinyl-Ala-Ala-Pro-Phe p-nitroanilide (0.45 mM in 100 mM HEPES pH 7.5, from Sigma Aldrich) for hCG and Boc-Ala-Ala-Nva-SBzl (0.22 mM in 100 mM MOPS pH 5.0 0.5 M NaCl, 100 μM DTNB, DMSO 10%, from EPC) for PR3. mNE (rmELA2 from R&D systems, United Kingdom) was first activated according to the supplier information. In brief, mNE was incubated with recombinant mouse active cathepsin C/DPPIy (rmCathepsin C from R&D systems) in MES 50 mM, NaCl 50 mM, pH 5.5 for 2 h at 37° C. The enzyme concentration in the assay was 6 nM, 14.7 nM, 25 nM, 5 nM for PPE, mNE, hCG and hPR3, respectively. Different molar ratios of NbE201: Enzyme were tested. […]

hNE [4] = target: T1, hNE; assay: Affinity of NbE201 for hNE by BLI; format: binding
Method: The affinity of NbE201 for hNE and mNE was measured by BLI with the Octet HTX machine using various settings. […] For hNE, the biotinylated NbE201 (0.5 μg·mL^−1) was immobilized on streptavidin biosensors (SA, Sartorius) following the provider's indications. Then, the biosensors were immersed in a solution of hNE at different concentrations (25-6.25-3.125-1.5163-0.753 nM). Association and dissociation kinetics were measured for 180 s and 300 s respectively, in 10×KB buffer. All the experiments were carried out at 30° C. in 96-wells or 384-wells black-bottom microplates in polypropylene (Greiner Bio-One, Belgium) and with orbital agitation (1500 rpm). The sensorgrams obtained were fitted globally to a 1:1 model to derive the rate constants for association (kon) and dissociation (koff) and the equilibrium dissociation constant (KD=koff/kon). […] were carried out. The error on KD was calculated using the following equation: […]

hNE [5] = target: T1, hNE; assay: hNE inhibition, hydrolysis of elastin (Elastin-CongoRed); format: biochemical
Method: 1.6.2. Inhibition of the hydrolysis of elastin, a natural substrate of hNE. […] The samples were incubated for 16 hours at 37° C. with orbital shaking (900 rpm). The samples were then centrifuged at 90′000 g for 30 minutes at 4° C. to separate the insoluble Elastin from the digested and soluble molecule fragments. The soluble fraction was transferred into a 384-wells clear plate and the absorbance of Congo-red was measured at 495 nm in a SpectraMax M2e Microplates Reader (Molecular Devices, California, USA). The absorbance of the samples at different inhibitor: hNE molar ratios was compared to that measured in the absence of inhibitor, to determine the residual hNE activity. A sample of Elastin-Congo red without elastase was used as blank.

T2 sequence (P00772 27-266): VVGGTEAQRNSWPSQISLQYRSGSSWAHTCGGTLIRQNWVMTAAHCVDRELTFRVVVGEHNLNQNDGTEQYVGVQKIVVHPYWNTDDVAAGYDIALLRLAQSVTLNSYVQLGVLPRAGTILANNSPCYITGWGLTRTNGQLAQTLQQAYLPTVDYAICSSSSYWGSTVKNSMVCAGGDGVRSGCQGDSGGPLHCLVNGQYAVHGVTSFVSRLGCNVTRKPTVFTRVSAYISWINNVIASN

B1: NbE201: anti-hNE ISVD (VHH/nanobody) from immunized lama, amino acid sequence SEQ ID NO: 4 (protein)
VHH: QVQLQESGGGLVQAGGSLRLSCVVPGRTISLYRMGWFRQAPGKEREFVAGINWSGDMTDYVDSVKGRFTISRDNAKNTVYLEMNSLKPEDTAIYYCTADPKLLPLADSSYGYWGQGTQVTVSS
B1 was tested, and the “inhibitory activity to hNE relative to mNE” value (hNE [1]) was “about 10 times”, the “protection against hNE-induced alveolar-capillary damage” value [2] was “protects the lungs from developing alveolar-capillary damage” and the “inhibition of porcine pancreatic elastase” value [3] was “does not inhibit”. For the same molecule, the “affinity for hNE relative to mNE” value (hNE [4]; hNE vs mNE) was “about 10 times”, the koff (hNE [4]; hNE, BLI) was 3.2 ± 0.2 · 10^−3 s^−1 and the kon (hNE [4]; hNE, BLI) was 2.6 ± 0.9 · 10^6 M^−1 s^−1. For the same molecule, the “hNE residual activity, elastin hydrolysis” value (hNE [5]; [inhibitor]:[hNE] = 50) was “almost zero” and the “inhibition of hNE activity, elastin hydrolysis” value (hNE [5]; [inhibitor]:[hNE] ratio 15) was 80%.
